System: MS2 coat protein
Test: apparent KD of MS2 coat protein; designed switch direction (-1 OFF switch, 1 ON switch): -1; higher = weaker reporter binding
In short: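 RNA switches sharing common flanks were transcribed by stalled E. coli RNA polymerase on Illumina chips. A doubling series of SNAP-549-labelled MS2 coat protein, from 0.7 or 1.5 nM to 3 µM, was applied in Tris-HCl pH 7.5 buffer with KCl, MgCl2, BSA, DTT, tRNA and Tween-20. Each step lasted 0.8–1.5 h at the bottom of the series and 10–20 min at the top. Normalised cluster fluorescence was curve-fitted, giving apparent KD as the per-design median over clusters.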

[1] = input ligand: microRNA oligo, concentration not stated
[2] = Eterna round: R95, input ligand: FMN 200 uM
[3] = Eterna round: R95, input ligand: microRNA oligo, concentration not stated
[4] = Eterna round: R95, input ligand: none

Sequence | apparent KD of MS2 coat protein (input ligand: FMN 200 uM) | apparent KD of MS2 coat protein (input ligand: none) | further results
UAAGAGUGAGGAUAUACGUCGCUGGUCCAGAUGGACGCAUGACAUGAGGAUCACCCAUGUAGAAGGCACAAAAC [Enxela Mod 3 - Jieux - Exclusion 2] (Eterna round: R97, puzzle: Exclusion 2) | 189 nM | 32.8 nM | –
AUUUUGUGAGGAUAUUAGUUGUAGAAAAUUGUUAGUAUAGCUGAGAAGGCACAUGAGGAUCACCCAUGUACAAC [JR_Ex4_Sub040] (Eterna round: R97, puzzle: Exclusion 4) | 31.1 nM | 18.1 nM | –
CUGCUCCGUGUAGGAUAUGCGUACAACCAAUAUGCAGAAGGACAUGAGGAUCACCCAUGUAUGUUAUUAUCACGUGAAGCGUCC [Design 21] (Eterna round: R96, puzzle: Exclusion NG 1) | – | – | apparent KD of MS2 coat protein [1]: 16 nM
AGUAUGCGGCAGGAUAUCCAUCCGCGGUAAGGUGGAGAAGGGCUGACAUGAGGAUCACCCAUGUGCGUCCUGUA [salish99_ex6_r4_028] (Eterna round: R97, puzzle: Exclusion 6) | 31.9 nM | 19.9 nM | –
CAGCUGAAAGUGAGGAUAUCUAGAGCUUCGGCUCUAGAGAAGGCACAUGAGGAUCACCCAUGUGAUCACAGCUG [BmEx4/7-A1] (Eterna round: R97, puzzle: Brourd's mod of Exclusion 4) | 633 nM | 356 nM | –
CGUUCCACAGGAUAUACAAAACGUAUCCCAGGGCUAACAGGACAUGAGGAUCACCCAUGUAGAAGGGUGGAACU [Eternabot (L1) Solution 36] (Eterna round: R97, puzzle: Exclusion 2) | 571 nM | 674 nM | –
ACCAUGUUAGGAUAUGCGUGGCAUAGACCGGUCUAUCCGCGGUAGAAGGGACAUGAGGAUCACCCAUGUGCGAG [Eternabot (L2) Solution 85] (Eterna round: R97, puzzle: Exclusion 4) | 41.5 nM | 32.3 nM | –
UGUAGUUCAGGAUAUGAUGUUUAAUACAUGAGGAUCACCCAUGUAGAUCCUGAAUUUACAUCAGAAGGGAAUAUUU [JL-ex5-4.57 Brourd mod] (Eterna round: R97, puzzle: Exclusion 5) | 17.3 nM | 14.9 nM | –
AGUAGAUCUACGCUUGCGUGGAUCUGCAAUGCAAGUGUAACAUGAGGAUCACCCAUGUCCUCAUUUGCUCGUCUUAU [JL turnoff v2 99.03] (puzzle: Sensor v3, turn-off variant 2) | – | – | apparent KD of MS2 coat protein [2]: 46.8 nM; apparent KD of MS2 coat protein [3]: 275 nM; apparent KD of MS2 coat protein [4]: 48.8 nM
AUAUAGUCAGGAUAUCGAAGUGUGUGUUGGUUUGUAAUUUACGAGAAGGGACAUGAGGAUCACCCAUGUAGGAA [JR_Exclusion4)Sub002] (puzzle: Exclusion 4) | – | – | apparent KD of MS2 coat protein [3]: 35.8 nM
GGUCAGCUAGGAUAUACAUGAGGAUCACCCAUGUACUGACCCAUGCGGUAGUCCGCAUGUAGAAGGAGCAAAAU [Cebiin] (Eterna round: R97, puzzle: Exclusion 3) | 11.3 nM | 18.2 nM | –
UGAUCUACUGAGGAUAUUAUAUCACCCGACUGAUAAGAAGGCAGUACAUGAGGAUCACCCAUGUGGGUAGCCAU [Polaris9] (Eterna round: R97, puzzle: Exclusion 6) | 50.8 nM | 34.7 nM | –
ACAUGAGGAUCACCCAUGUAAACAUAAUGGCUCAUGUAGAGUCAGGAUAUGCGUGGCGAACAAUCGCAGAAGGGACAAGACUGG [Deportation 28 - Jieux - Exclusion NG 3] (Eterna round: R96, puzzle: Exclusion NG 3) | 29.2 nM | 27.8 nM | apparent KD of MS2 coat protein [1]: 19.9 nM
CAGAUGGGUAACUACACCCACAUGAGGAUCACCCAUGUACACAUAGCUUACGCUCGUCUUAAGCGUGUUUUCGUAGC [Eternabot (L2) Solution 10] (Eterna round: R97, puzzle: Sensor, turn-off variant 1) | 32 nM | 33.4 nM | –
AUUGAUAGCACAGGAUAUUGAGAUUUGAAUUGACAAGAAGGGUGUACAUGAGGAUCACCCAUGUAAUGGGAGAAUGAUUGAUUA [JR_ExcNG1_Sub001] (Eterna round: R96, puzzle: Exclusion NG 1) | 1260 nM | 1640 nM | apparent KD of MS2 coat protein [1]: 1040 nM
AAGAUGUGAGGAUAUCUAUUGAAGCGCGGUUCCCGGCAGAGAGAGAAGGCACAUGAGGAUCACCCAUGUAUAGC [Eternabot (L1) Solution 53] (Eterna round: R97, puzzle: Exclusion 4) | 56.5 nM | 20.6 nM | –
AGCAUGUAAGGAUAUGCAACACGACGUUCAAUCGUCGUGCCGCAGAAGGUACAUGAGGAUCACCCAUGUGCUCC [Xesodied] (puzzle: Exclusion 4) | – | – | apparent KD of MS2 coat protein [3]: 75.4 nM

Sequence | apparent KD of MS2 coat protein (input ligand: FMN 200 uM) | apparent KD of MS2 coat protein (input ligand: none) | further results
CAAUGAGGAGUGAGGAUAUCGUGUUCGAAAGAACGUGAGAAGGCACAUGAGGAUCACCCAUGUGAUCCUCAUUG [Omei Ex4B A24] (Eterna round: R97, puzzle: Brourd's mod of Exclusion 4) | 98.2 nM | 53.3 nM | –
UAUUAGCAAGCGAGAUCCCACAUGAGGAUCACCCAUGUGCUCGUCUUAUAAAGUACUGUGACGAAAGUCACGGUACU [Mat - Sensor, turn-off var - Eli Mod - D7] (Eterna round: R97, puzzle: Sensor, turn-off variant 1) | 15.2 nM | 14.6 nM | –
AACAGGUCAGGAUAUACAUGAGGAUCACCCAUGUAGACUUCUGGUCUACCUUGACCGUGUAGAAGGGACCUGAA [Exclusion 3 (MOD2 of #98 Marzena11)] (Eterna round: R97, puzzle: Exclusion 3) | 43.9 nM | 28.8 nM | –
GGCAUGCAAGGAUAUACUUACAGUGAUGUUCGAAUAAGGCUACUUGAGGAUCACCCAAGUAGAAGGUGCAUGCC [Exclusion 2 (Mod JL EX2 4.74 Vienna UCT mod of Mamaed)] (Eterna round: R97, puzzle: Exclusion 2) | 203 nM | 26.8 nM | –
UGCCUACGUGUGAGGAUAUCAAGGUUUCCACACUAUGAGAAGGUACAUGAGGAUCACCCAUGUUUAGAUGAGCC [Eternabot (L2) Solution 43] (Eterna round: R97, puzzle: Brourd's mod of Exclusion 4) | 74.2 nM | 74.6 nM | –
CAGUACUGAGGAUAUACAUGAGGAUCACCCAUGUGUCCCAGCUAGGAAACUAGCAAAAGUAGAAGGCAGUACUG [Fiskers Ex 3 828 mod 1] (puzzle: Exclusion 3) | – | – | apparent KD of MS2 coat protein [2]: 420 nM; apparent KD of MS2 coat protein [3]: 24.4 nM; apparent KD of MS2 coat protein [4]: 24.5 nM
UUUUAACAUGAGGAUCACCCAUGUGAGGAUAUCGAAAUUUAUAUUAAUAUUUAUAUUACGAGAAGGCACAUUUU [JMF 58] (Eterna round: R96, puzzle: Exclusion 1) | 103 nM | 62.9 nM | apparent KD of MS2 coat protein [1]: 55.3 nM
UGUAACCGAGGAUAUACAUGAGGAUCACCCAUGUAAUGUAGUAUAGUGUAUGUAAGAUGUAGAAGGUGGGAUGU (Eterna round: R97, puzzle: Exclusion 3) | 40.2 nM | 45.7 nM | –
UCGGAUAGAGGAUAUACAUGAGGAUCACCCAUGUGGUCAAGCGGGUACGCCCAGCGAGGUAGAAGGCUAUCCGG [Eternabot (L1) Solution 16] (Eterna round: R97, puzzle: Exclusion 3) | 407 nM | 136 nM | –
UCUGUACAUCCCAAGCAUAACAUGAGGAUCACCCAUGUUGAACAAAACGUCGGUCCUGCUGCUCGUCGAAGGAAUAG [Eternabot (Original) Solution 8] (Eterna round: R97, puzzle: Sensor, turn-off variant 1) | 47.4 nM | 47.5 nM | –
UACAUGAGGAUCACCCAUGUUUUGUCGUGUAUGGUAUUUAUCUAGGAUAUCAAUCUAUUUAGUUAUGAGAAGGAGAAUAUUAAU [JMF's solution 54] (Eterna round: R96, puzzle: Exclusion NG 3) | 39.1 nM | 37.8 nM | apparent KD of MS2 coat protein [1]: 29.9 nM
ACAUGAGGAUCACCCAUGUCUGGCUGGUCCGCUCCGGCUGUUGAGGAUAUAGCUCGGUGUCCGCGCUAGAAGGUGAGGGCCGGC [Aenatbe mod 33] (Eterna round: R96, puzzle: Exclusion NG 3) | 22.4 nM | 25.1 nM | apparent KD of MS2 coat protein [1]: 18.6 nM
GAUUAGUGAGGAUAUGGUAAAGAUAAGAUGAUGAAAGAACUCCAGAAGGCACAUGAGGAUCACCCAUGUAGUAU [Mat - Exclusion 4 - Mod of JL - D22] (puzzle: Exclusion 4) | – | – | apparent KD of MS2 coat protein [3]: 21.6 nM
AGGUGACAUGAGGAUCACCCAUGUAAGGAUAUACGGUUAGUGGAGAGUUGGAAGAGAGGUAGAAGGUACGGAGC [JR_Exclu1_Sub059] (puzzle: Exclusion 1) | – | – | apparent KD of MS2 coat protein [3]: 197 nM
CUUUACAUAGGAUAUAGUUGCUUUUACAUGAGGAUCACCCAUGUCUCUCCUCUCUCUCUUCUAGAAGGAUGUUUCU [JR_E5_Sub010] (puzzle: Exclusion 5) | – | – | apparent KD of MS2 coat protein [3]: 56 nM
CACCUGAACACAGGAUAUCAUACAUGAGGAUCACCCAUGUAAUAAAUGAGAAUUUCGAAUGUAAUUGAGAAGGGUGGAUAAGGC [Ostricism 90 - Jieux - Exclusion NG 2] (Eterna round: R96, puzzle: Exclusion NG 2) | 97.8 nM | 41.1 nM | apparent KD of MS2 coat protein [1]: 34.6 nM
AGCUCUGCAGGAUAUGCCCGGGAUAACAUGAGGAUCACCCAUGUGACUGAUUGUUAUUCUGCAGAAGGGCAUGGGA [JL-EX5-4.15 ViennaUCT mod] (Eterna round: R97, puzzle: Exclusion 5) | 409 nM | 637 nM | –

Source: the supplement of paper PMC9170038
